Measurements from the nanobody polyreactivity screen of Harvey et al. (2022).

assay: yeast display, Sf9 membrane polyspecificity reagent, FACS + sequencing; frameworks hold sequencing errors
In short: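 Sorting gates, low and high (top ~1%), were placed on anti-HA fluorescence to track expression and on streptavidin fluorescence to track reagent binding. A clone's polyreactivity label is taken from the gate it came out of. The reagent was 10% biotinylated, detergent-solubilized Sf9 membrane, applied for 1 hour at 4 °C to galactose-induced yeast display cells.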

| Sequence | polyreactivity (PSR sort gate) |
| --- | --- |
| QVQLVESGGGLVQAGGTLRLSCAASGRIFGVYAMGWSRQAPGKERELVAAIRWSGGSTYYADSVKGRFTISRDNAKTTVYLQMNSLKPEDTAVYYCAAVGGVTRGNQYVRYGYWGQGTQVTVSS | high polyreactivity |
| QVQLVESGGGLVQAGGTLRLSCAASGRIFGYNDMGWYRQAPGKERELVAAINRTGGSTYYADSVKGRFTISRDNAKNTVYLQMNSLKPEDTAVYYCNADARTKWVQTHTDFITDYDYWGQGTQVTVSS | low polyreactivity |
| QVQLVESGGGLVQAGGTLRLSCAASGRIFVYYTMGWYRQAPGKERELVAAITCSGGSTYYADTVKGRFTISRDNEKNPVYLQMNSLKPEDTAVYYCAADGYADYYGWGYWTEYDYWGQGTQVTVSS | low polyreactivity |
| QVQLVESGGGLVQAGGTLRLSCAASGRTFPLYAMGWYRQAPGKERELVAAISSSGGNTYYADSVKGRFTISRDNAKNTVYLQMNSLKPEDTAVYYCNADVSTNSDRLQLDYWGQGTQVTVSS | low polyreactivity |
| QVQLVESGGGLVQAGGTLRLSCAASGSIFGNYAMGWDRQAPGKERELVAGISKSGGRTYYADSVKGRFTISRDNAKNTVYLQMNSLKPEDTAVYYCNALVTRYQSLDRLGDYWGQGTQVTVSS | high polyreactivity |
| QVQLVESGGGLVQAGGTLRLSCAASGSIFRYYAMGWYRQAPGKERELVASSSRRGGSTYYADSVKGRFTISRDIANITVYGQMNSLKPEDTAVYYCAAYSYVYGERYYYWGQGSQVTVSS | high polyreactivity |
| QVQLVESGGGLVQAGGTLRLSCAASGSTFGPNAMGWYRQAPGKEREVVATIRGSGATTYYADSVKGRFTISRDNAKNTVYLQMNSLKPEDSAVYYCDTAYFSGWYNRYGRATSYDYWGQGTEVTVSS | high polyreactivity |
| QVQLVESGGGLVQAGGTLRLSCAASGSTFIGNAMGWYRQAPGKVRELVATITSGDSKYADSVKGRFTISRDNAKNTVYLQMNSLKPEDTAVYYCNADPWDIGSTFELDYWGQGTQVTVSS | low polyreactivity |
| QVQLVESGGGLVQAGGTLRLSCAASGSTFPKYGMGWYRQAPGKEREFVARINWNGGGTYYADSVKGRFTISRDNAKNTVYLHMNSLKPEDTAVYYCNARKRGARFILGYDYWGQGTQVTVSS | low polyreactivity |
| QVQLVESGGGLVQAGGTLRLSCAASGSTFPPYAMGWYRQAPGKERELVAAISWRGSSTYYADSVKGRFTISRDNAKNTVYLQMNSLKPEDTAVYYCNADGGGSYWLYEHGFARDYWGQGTQVTVSS | high polyreactivity |
| QVQLVESGGGLVQAGGTLRLSCAASGSTFRWYAMGWYRQAPGKERELVAAITSSGSTYYADSVKGRFTISRDNAKNTVYLQMNSLKPEDTAVYYCAARAKGYWNTYEHDSWGQGIQVTVSS | low polyreactivity |
| QVQLVESGGGLVQAGGTLRLSCAASGSTFVRNAMGWYRQPPGKERELVAAISVDGSSTYYADSVKGRFTISRDNAKNTVYLQMNSLKPEDTAVYYCNADWDYRDFYDITYDYWGQGTQVTVSS | low polyreactivity |
| QVQLVESGGGLVQAGGTLRLSCAASGYIFPAYVMGWYRQAPGKERELVAAITSGGGTYYADSVKGRFTISRDNAKYTVYLQMNSLKPEDTAVYYCAARYTQRPRRNYWGQGTQVTVSS | high polyreactivity |
| QVQLVESGGGLVQAGGTLRLSCAASGYTFVVYAMGWYRQAPGKERELVASISRSGGSTYYADSVKGRFTISRDNAKNTVYLQMNSLKPEDTAVYYCAADVWRVQHRGYNYWGQGTQVTVSS | high polyreactivity |
| QVQLVESGGGLVQAGGTLRLSCAATGRTFAPNSMGWYRHAPGKERELFAAISWSGTSTYYADSVKGRFTISRDNAKNTVYLQMNSLKPEDTAVYYCAADLEGRVGSPWTYDYWGQGTQVTVSS | low polyreactivity |
| QVQLVESGGGLVQAGGTLRLSCAATGSIFPGNAMGWYRPAPGKERELVAAISGRGGSTYYADSVKGRFTISRDNAKNTVYVQMNSLKPEDTAVYYCAAAPVYRPRDSYDKHRHYYWGQCTQVTVSS | high polyreactivity |
| QVQLVESGGGLVQAGGTLRLSCAATGSTFNINAMGWYRQAPGKERELFAAITRGGTNYADSVKGRFTISRDNAKNTVYLQMNSLKPEDTAVYYCAARGTGGSVKVTSLQQGGYWGQGTQVTVSS | high polyreactivity |
| QVQLVESGGGLVQAGGTLRVSCAASGLIFYGNVMGWYRQAPGKERELVAGISRNSGSTYYADSVKGRFTISRDNANNTVYLQMNSLKPEDTAVYYCAALKFEAWAGEDYWGPGTQVTVSS | low polyreactivity |
| QVQLVESGGGLVQAGGTLRVSCAASGSTFTTNAMGWSRQAPGTERELFATISGGGSTYYADSVQGRFTISRDNAKNTVYLQMNSLKPDDTAVYYCATDVQVPGIGRSVYAYEYLGQGTQVTVSS | low polyreactivity |
| QVQLVESGGGLVQAGRCLRLSCAASGITFVPNAMGWSRQAPGKERELVAAISSGGTYADSVKGRFTISRDNAKNTVYLQMNSLKPEDTALYYCNADTDYIRWIYGYWGQVTQVTVSS | low polyreactivity |
| QVQLVESGGGLVQAGRILRLSCAASGYIFRRYAMGWYRQAPGKERELVAVISSRGGSTYYADSVKGRFTISRDNATKTVYLQMNSLKPEDTAVYYCAARSGSRATFLSDYWGQGNQVTVSS | high polyreactivity |
| QVQLVESGGGLVQAGRSHRLTCAASGSTDSNAMGWYRQAPGKERELVAAISGTGSRTYYADSVKGRFTISRDNAKNSVYLEMNSLKPEDTAVYYCAASPDVSFRRFSLVVSGDYWGQGNQVTVSS | high polyreactivity |

| Sequence | polyreactivity (PSR sort gate) |
| --- | --- |
| QVQLVESGGGLVQAGRSLRISRAASGSIFYKNVMGWYRQAPGKERELVAAITSGGSTYYADSVKGRFTISRDNAKNTVYFQMNSVYPEYSAVYYWAAGFGRNPVSRYYWGQGTQVTVSS | high polyreactivity |
| QVQLVESGGGLVQAGRSLRLICAASGSIFRKYAMCWYRQAPVKESELVAAINYSGGNTYYADSVKGRFTISRDNSKNTVYLQMNSLKPEDTAVYFCAADSVRHYWWAYYYWGQVTQVTVSS | low polyreactivity |
| QVQLVESGGGLVQAGRSLRLSCAASGFTFSWYTMGWYRQAPGKERELVAAISSSGGNTYYADSVKGRFTISRDNAKNTVYLQMNSLKPEDNAVYYCVARFGSYGYYYWGQGTQVTVSS | high polyreactivity |
| QVQLVESGGGLVQAGRSLRLSCAASGFTLTPYAMGWYRQAPGKERELVARISDSGDSTYYADSVKGRFTMSRDNAKNTVYLQMNRLKPEDTAVYYCATDWNAGIDYYRFYADEYNYWGQGSQVTVSS | low polyreactivity |
| QVQLVESGGGLVQAGRSLRLSCAASGINFAGYAKGWYRQAPGKERELVAAISRGGSTYYADSVKGRFTISRDNAKNTVYFQMNSLIPEDTAVYYCNTYYQQGYFTYTGWNYNYWGQGTQVTVST | high polyreactivity |
| QVQLVESGGGLVQAGRSLRLSCAASGITFSRNDMGWYRQAPGKEMQLVAAISRSGGRTYYADSVKGRFTLSRDNAKNTVYLQMNCLNPEDTAVYYCNRDIGGTSVLDDYWGQGTQVTVSS | low polyreactivity |
| QVQLVESGGGLVQAGRSLRLSCAASGITFTGYALGWSRQATGKERELVAAISKRGARTYYADSVKGRFTISRDNAKNTVYLQMNSLKPEDTAVYYCAADSTAQDIAGLYYWGQGTQVTVSS | high polyreactivity |
| QVQLVESGGGLVQAGRSLRLSCAASGLTFLYYAMGWYRHAPAKEMEFVAANSNRDGSTYYADSVKGRFTISRDNAKNTVYLQMNSLKPEDTAGYYCYADGYVDYCFLKYRFEFDYWGQGTQVTVSS | low polyreactivity |
| QVQLVESGGGLVQAGRSLRLSCAASGLTFVNYTMGCYRQAPGKEREFVAAITSSGGSSTYYADSVKGRFTHSRDNAKNTVYLQMNSLYPEDTAVYYCAAGFTLYVDIVILTVNTVDYWGQGTQVTVSS | low polyreactivity |
| QVQLVESGGGLVQAGRSLRLSCAASGNTFWFYGMGWYRQAPGKVRELVAAITSGGSTDYADSVKGRFTISRENAKNTVSLQMNSLKPEDTAVYYCAAEPVAYYGSSYGYWGQGTQVTVSS | low polyreactivity |
| QVQLVESGGGLVQAGRSLRLSCAASGRIFTPNAMGWYRQAPGKERELVAAISSSGRTSYADSLKGRFTNTSDNAKITVYLQMNSLKPEDTAVYYCNATWRWTRRGYDYWGQGTQVTVSS | low polyreactivity |
| QVQLVESGGGLVQAGRSLRLSCAASGRTFDEYAMGWYRQAPGKERELVAAISARGGRTYYADSVKGRFTISRDNAKNTVYLQMNSLKPEDTAVYYCAAAGYITRYDRYDYWGQGTQVTVSS | high polyreactivity |
| QVQLVESGGGLVQAGRSLRLSCAASGRTFYHYAMGWYRQAPGKERELVAAIDWSTASTYYADSVKGRFTISRDNAKNTVYLQMNSLIQEDTAVYYCATDSAILINFVLYDYWGQGTQVTVSS | low polyreactivity |
| QVQLVESGGGLVQAGRSLRLSCAASGRTFYYYAMVWNRQAPGKERELVAAISWRSGSTYYADSVKGRFTISRDNAKNTLYLQMNSLKPEDTAVYYCATSVRFYWFADGYWGQGTQVTVSS | high polyreactivity |
| QVQLVESGGGLVQAGRSLRLSCAASGSIFYKYARGWYRQAPGKERELVAAISRSRGSTYYADSVKGRFTISRDNAKNTVYLQMNSLKPEDTAVYYCNAYYRYSFSELDKYGYWGQGTQVTVSS | high polyreactivity |
| QVQLVESGGGLVQAGRSLRLSCAASGSTLTRNAMGWYRQAPGKERELVAAITQRGGSTYYADSVKGRFTISRDNAKNTVYLQMNSLKPEDTAVYYCAAAYRGYARHDYWGQGTQVNVSS | high polyreactivity |
| QVQLVESGGGLVQAGRSLRLSCPASGSTFYTNHMGWYRQAPGKERELVAAITSAGNTNYADSVKGRFTISRDNAKNTVYLQMNSLKPEDTAVYYYYYYQYDYWGQGTQVTVSS | low polyreactivity |
| QVQLVESGGGLVQAGSSLRLSCAASGFTFNRYAMGWYRQAPGKERELVAAISWSGGSTYYADSVKGRFTISRDNAKNTVYLQMNSLKPEDTEVYYCSDATAYYRYRGGYDYWGQGTQVTVSS | high polyreactivity |
| QVQLVESGGGLVQAGVSLLLSCAASGSTLYYNAMGWYRQAPGKERELVAAITSGGSTSYADSVKGRFTISRDNAKHTVYLQRNSLKPEDTAVYYCAAVFYRRFDYWGQGTQVTVSS | low polyreactivity |
| QVQLVESGGGLVQAGVSLRLRCASSGSTFAYNAMGWYRQAPGKESELVAAISTSGGYTYYADSVKGRFTISRDNAKNTVYLQMNSLKPEDTAVYYCYAVGRSKHGYSRSYYWGQGTQVTVSS | high polyreactivity |
| QVQLVESGGGLVQAGVSLRLSCAASGFIFRTYAMGWYRQAPGKEREVVAAITGRGGTTYYADSVKGRFTISRDNAKNTVYLQMNSLKPEDTAVYYCAARGRVSVNTQRYAAYNYLGQGTQVTVSS | high polyreactivity |
